{"source": "paper PMC12416549", "about": "(2024)", "binders": {"B1": {"name": "L6P (designed binder)", "chain": "MTLQEPLREEALRRAEAEAFRYALELLAEKFPEQKEYLLDLAEEIESQIRSLSGVDVEDVRKFLDKEWAWVKELLAEHPAELAEVEAARAARLAELRAEVEAKVAA"}, "B2": {"name": "E77N (designed binder)", "chain": "B1 chain with P6L, E77N"}, "B3": {"name": "A23Y (designed binder)", "chain": "B1 chain with P6L, A23Y"}, "B4": {"name": "E101P (designed binder)", "chain": "B1 chain with P6L, E101P"}, "B5": {"name": "R13E (designed binder)", "chain": "B1 chain with P6L, R13E"}, "B6": {"name": "D40T (designed binder)", "chain": "B1 chain with P6L, D40T"}, "B7": {"name": "H78F (designed binder)", "chain": "B1 chain with P6L, H78F"}, "B8": {"name": "A76C (designed binder)", "chain": "B1 chain with P6L, A76C"}, "B9": {"name": "A80R (designed binder)", "chain": "B1 chain with P6L, A80R"}, "B10": {"name": "Y22N (designed binder)", "chain": "B1 chain with P6L, Y22N"}, "B11": {"name": "E84L (designed binder)", "chain": "B1 chain with P6L, E84L"}, "B12": {"name": "A105L (designed binder)", "chain": "B1 chain with P6L, A105L"}, "B13": {"name": "I45G (designed binder)", "chain": "B1 chain with P6L, I45G"}, "B14": {"name": "A106T (designed binder)", "chain": "B1 chain with P6L, A106T"}, "B15": {"name": "E84G (designed binder)", "chain": "B1 chain with P6L, E84G"}, "B16": {"name": "R89M (designed binder)", "chain": "B1 chain with P6L, R89M"}, "B17": {"name": "E33M (designed binder)", "chain": "B1 chain with P6L, E33M"}, "B18": {"name": "L82N (designed binder)", "chain": "B1 chain with P6L, L82N"}, "B19": {"name": "L26I (designed binder)", "chain": "B1 chain with P6L, L26I"}, "B20": {"name": "E9I (designed binder)", "chain": "B1 chain with P6L, E9I"}, "B21": {"name": "A11D (designed binder)", "chain": "B1 chain with P6L, A11D"}, "B22": {"name": "E44M (designed binder)", "chain": "B1 chain with P6L, E44M"}, "B23": {"name": "A15M (designed binder)", "chain": "B1 chain with P6L, A15M"}, "B24": {"name": "V104H (designed binder)", "chain": "B1 chain with P6L, V104H"}, "B25": {"name": "G54I (designed binder)", "chain": "B1 chain with P6L, G54I"}, "B26": {"name": "V104A (designed binder)", "chain": "B1 chain with P6L, V104A"}, "B27": {"name": "E43N (designed binder)", "chain": "B1 chain with P6L, E43N"}, "B28": {"name": "L6Q (designed binder)", "chain": "B1 chain with P6Q"}, "B29": {"name": "A19T (designed binder)", "chain": "B1 chain with P6L, A19T"}, "B30": {"name": "Y22K (designed binder)", "chain": "B1 chain with P6L, Y22K"}, "B31": {"name": "L93K (designed binder)", "chain": "B1 chain with P6L, L93K"}, "B32": {"name": "R14G (designed binder)", "chain": "B1 chain with P6L, R14G"}, "B33": {"name": "A76E (designed binder)", "chain": "B1 chain with P6L, A76E"}, "B34": {"name": "A28D (designed binder)", "chain": "B1 chain with P6L, A28D"}, "B35": {"name": "E81L (designed binder)", "chain": "B1 chain with P6L, E81L"}, "B36": {"name": "F31M (designed binder)", "chain": "B1 chain with P6L, F31M"}, "B37": {"name": "A23F (designed binder)", "chain": "B1 chain with P6L, A23F"}, "B38": {"name": "Q4C (designed binder)", "chain": "B1 chain with Q4C, P6L"}, "B39": {"name": "V100M (designed binder)", "chain": "B1 chain with P6L, V100M"}, "B40": {"name": "E58N (designed binder)", "chain": "B1 chain with P6L, E58N"}, "B41": {"name": "E84M (designed binder)", "chain": "B1 chain with P6L, E84M"}, "B42": {"name": "I49D (designed binder)", "chain": "B1 chain with P6L, I49D"}, "B43": {"name": "A17L (designed binder)", "chain": "B1 chain with P6L, A17L"}, "B44": {"name": "R13G (designed binder)", "chain": "B1 chain with P6L, R13G"}, "B45": {"name": "L27D (designed binder)", "chain": "B1 chain with P6L, L27D"}, "B46": {"name": "R61N (designed binder)", "chain": "B1 chain with P6L, R61N"}, "B47": {"name": "A91I (designed binder)", "chain": "B1 chain with P6L, A91I"}, "B48": {"name": "W70G (designed binder)", "chain": "B1 chain with P6L, W70G"}, "B49": {"name": "S53Q (designed binder)", "chain": "B1 chain with P6L, S53Q"}, "B50": {"name": "E29K (designed binder)", "chain": "B1 chain with P6L, E29K"}, "B51": {"name": "D65F (designed binder)", "chain": "B1 chain with P6L, D65F"}, "B52": {"name": "G54M (designed binder)", "chain": "B1 chain with P6L, G54M"}, "B53": {"name": "D40R (designed binder)", "chain": "B1 chain with P6L, D40R"}, "B54": {"name": "E58L (designed binder)", "chain": "B1 chain with P6L, E58L"}, "B55": {"name": "A83Y (designed binder)", "chain": "B1 chain with P6L, A83Y"}, "B56": {"name": "L82Q (designed binder)", "chain": "B1 chain with P6L, L82Q"}, "B57": {"name": "A88F (designed binder)", "chain": "B1 chain with P6L, A88F"}, "B58": {"name": "E58I (designed binder)", "chain": "B1 chain with P6L, E58I"}, "B59": {"name": "Y22S (designed binder)", "chain": "B1 chain with P6L, Y22S"}}, "biological_target": "T1, TNFR1 (Homo sapiens, UniProt P19438)", "T1 chain": "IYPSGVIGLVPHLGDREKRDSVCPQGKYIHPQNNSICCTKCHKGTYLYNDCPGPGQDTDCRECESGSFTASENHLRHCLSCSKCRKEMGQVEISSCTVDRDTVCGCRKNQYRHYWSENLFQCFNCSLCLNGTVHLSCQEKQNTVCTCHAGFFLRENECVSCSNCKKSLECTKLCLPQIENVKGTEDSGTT", "assay": "yeast display SC50", "note": "Residue numbers refer to the chain shown, from its start. Numbers in names are those of the source."}
{"binder": "B1", "values": [{"measurement": "apparent Kd (screen)", "value": 4.39, "unit": "nM"}]}
{"binder": "B2", "values": [{"measurement": "apparent Kd (screen)", "value": 0.49, "unit": "nM"}]}
{"binder": "B3", "values": [{"measurement": "apparent Kd (screen)", "value": 1.4, "unit": "nM"}]}
{"binder": "B4", "values": [{"measurement": "apparent Kd (screen)", "value": 0.446, "unit": "nM"}]}
{"binder": "B5", "values": [{"measurement": "apparent Kd (screen)", "value": 0.405, "unit": "nM"}]}
{"binder": "B6", "values": [{"measurement": "apparent Kd (screen)", "value": 3, "unit": "nM"}]}
{"binder": "B7", "values": [{"measurement": "apparent Kd (screen)", "value": 0.446, "unit": "nM"}]}
{"binder": "B8", "values": [{"measurement": "apparent Kd (screen)", "value": 0.539, "unit": "nM"}]}
{"binder": "B9", "values": [{"measurement": "apparent Kd (screen)", "value": 0.593, "unit": "nM"}]}
{"binder": "B10", "values": [{"measurement": "apparent Kd (screen)", "value": 0.593, "unit": "nM"}]}
{"binder": "B11", "values": [{"measurement": "apparent Kd (screen)", "value": 0.49, "unit": "nM"}]}
{"binder": "B12", "values": [{"measurement": "apparent Kd (screen)", "value": 0.653, "unit": "nM"}]}
{"binder": "B13", "values": [{"measurement": "apparent Kd (screen)", "value": 8.56, "unit": "nM"}]}
{"binder": "B14", "values": [{"measurement": "apparent Kd (screen)", "value": 1.05, "unit": "nM"}]}
{"binder": "B15", "values": [{"measurement": "apparent Kd (screen)", "value": 0.539, "unit": "nM"}]}
{"binder": "B16", "values": [{"measurement": "apparent Kd (screen)", "value": 0.869, "unit": "nM"}]}
{"binder": "B17", "values": [{"measurement": "apparent Kd (screen)", "value": 0.49, "unit": "nM"}]}
{"binder": "B18", "values": [{"measurement": "apparent Kd (screen)", "value": 1.69, "unit": "nM"}]}
{"binder": "B19", "values": [{"measurement": "apparent Kd (screen)", "value": 0.653, "unit": "nM"}]}
{"binder": "B20", "values": [{"measurement": "apparent Kd (screen)", "value": 0.79, "unit": "nM"}]}
{"binder": "B21", "values": [{"measurement": "apparent Kd (screen)", "value": 0.593, "unit": "nM"}]}
{"binder": "B22", "values": [{"measurement": "apparent Kd (screen)", "value": 1.69, "unit": "nM"}]}
{"binder": "B23", "values": [{"measurement": "apparent Kd (screen)", "value": 0.653, "unit": "nM"}]}
{"binder": "B24", "values": [{"measurement": "apparent Kd (screen)", "value": 1.16, "unit": "nM"}]}
{"binder": "B25", "values": [{"measurement": "apparent Kd (screen)", "value": 2.48, "unit": "nM"}]}
{"binder": "B26", "values": [{"measurement": "apparent Kd (screen)", "value": 0.653, "unit": "nM"}]}
{"binder": "B27", "values": [{"measurement": "apparent Kd (screen)", "value": 0.446, "unit": "nM"}]}
{"binder": "B28", "values": [{"measurement": "apparent Kd (screen)", "value": 4.83, "unit": "nM"}]}
{"binder": "B29", "values": [{"measurement": "apparent Kd (screen)", "value": 0.718, "unit": "nM"}]}
{"binder": "B30", "values": [{"measurement": "apparent Kd (screen)", "value": 0.49, "unit": "nM"}]}
{"binder": "B31", "values": [{"measurement": "apparent Kd (screen)", "value": 0.718, "unit": "nM"}]}
{"binder": "B32", "values": [{"measurement": "apparent Kd (screen)", "value": 0.539, "unit": "nM"}]}
{"binder": "B33", "values": [{"measurement": "apparent Kd (screen)", "value": 0.593, "unit": "nM"}]}
{"binder": "B34", "values": [{"measurement": "apparent Kd (screen)", "value": 18.3, "unit": "nM"}]}
{"binder": "B35", "values": [{"measurement": "apparent Kd (screen)", "value": 0.653, "unit": "nM"}]}
{"binder": "B36", "values": [{"measurement": "apparent Kd (screen)", "value": 0.539, "unit": "nM"}]}
{"binder": "B37", "values": [{"measurement": "apparent Kd (screen)", "value": 1.16, "unit": "nM"}]}
{"binder": "B38", "values": [{"measurement": "apparent Kd (screen)", "value": 0.539, "unit": "nM"}]}
{"binder": "B39", "values": [{"measurement": "apparent Kd (screen)", "value": 0.49, "unit": "nM"}]}
{"binder": "B40", "values": [{"measurement": "apparent Kd (screen)", "value": 0.49, "unit": "nM"}]}
{"binder": "B41", "values": [{"measurement": "apparent Kd (screen)", "value": 0.956, "unit": "nM"}]}
{"binder": "B42", "values": [{"measurement": "apparent Kd (screen)", "value": 12.5, "unit": "nM"}]}
{"binder": "B43", "values": [{"measurement": "apparent Kd (screen)", "value": 0.277, "unit": "nM"}]}
{"binder": "B44", "values": [{"measurement": "apparent Kd (screen)", "value": 0.252, "unit": "nM"}]}
{"binder": "B45", "values": [{"measurement": "apparent Kd (screen)", "value": 0.142, "unit": "nM"}]}
{"binder": "B46", "values": [{"measurement": "apparent Kd (screen)", "value": 1.86, "unit": "nM"}]}
{"binder": "B47", "values": [{"measurement": "apparent Kd (screen)", "value": 0.956, "unit": "nM"}]}
{"binder": "B48", "values": [{"measurement": "apparent Kd (screen)", "value": 16.7, "unit": "nM"}]}
{"binder": "B49", "values": [{"measurement": "apparent Kd (screen)", "value": 0.653, "unit": "nM"}]}
{"binder": "B50", "values": [{"measurement": "apparent Kd (screen)", "value": 0.49, "unit": "nM"}]}
{"binder": "B51", "values": [{"measurement": "apparent Kd (screen)", "value": 0.653, "unit": "nM"}]}
{"binder": "B52", "values": [{"measurement": "apparent Kd (screen)", "value": 12.5, "unit": "nM"}]}
{"binder": "B53", "values": [{"measurement": "apparent Kd (screen)", "value": 12.5, "unit": "nM"}]}
{"binder": "B54", "values": [{"measurement": "apparent Kd (screen)", "value": 0.446, "unit": "nM"}]}
{"binder": "B55", "values": [{"measurement": "apparent Kd (screen)", "value": 0.718, "unit": "nM"}]}
{"binder": "B56", "values": [{"measurement": "apparent Kd (screen)", "value": 0.956, "unit": "nM"}]}
{"binder": "B57", "values": [{"measurement": "apparent Kd (screen)", "value": 0.718, "unit": "nM"}]}
{"binder": "B58", "values": [{"measurement": "apparent Kd (screen)", "value": 0.593, "unit": "nM"}]}
{"binder": "B59", "values": [{"measurement": "apparent Kd (screen)", "value": 0.79, "unit": "nM"}]}
